Test results published in FireProtDB (doi:10.1006/jmbi.1998.1906).
Values joined by “and” are separate entries in the source; they are usually repeats but may differ in a detail not shown here. Equal values may be shown once.

B1: Lysozyme C, P61626 (parent)
chain: MKALIVLGLVLLSVTVQGKVFERCELARTLKRLGMDGYRGISLANWMCLAKWESGYNTRATNYNAGDRSTDYGIFQINSRYWCNDGKTPGAVNACHLSCSALLQDNIADAVACAKRVVRDPQGIRAWVAWRNRCQNRDVRQYVQGCGV

Variants of: B1
Conditions: Homo sapiens; pH 2.49; Thermal; DSC; glycine 0.05 M; reversible: yes; structure 1LZ1; whole UniProt chain shown

| Variant | Tm [°C] | unfolding enthalpy (calorimetric) [kcal/mol] | unfolding enthalpy (van 't Hoff) [kcal/mol] |
| --- | --- | --- | --- |
| MKALIVLGLVLLSVTVQGKVFERCELARTLKRLGMDGYRGISLANWMCLAKWESGYNTRATNYNAGDRSTDYGIFQINSRYWCNDGKTPGAVNACHLSCSALLQDNVADAVACAKRVVRDPQGIRAWVAWRNRCQNRDVRQYVQGCGV [I107V] | 42.5 | 66 | 72 |

Same assay, conditions: Homo sapiens; pH 2.66; Thermal; DSC; glycine 0.05 M; reversible: yes; structure 1LZ1; whole UniProt chain shown

| Variant | Tm [°C] | unfolding enthalpy (calorimetric) [kcal/mol] | unfolding enthalpy (van 't Hoff) [kcal/mol] |
| --- | --- | --- | --- |
| MKALIVLGLVLLSVTVQGKVFERCELARTLKRLGMDGYRGISLANWMCLAKWESGYNTRATNYNAGDRSTDYGIFQINSRYWCNDGKTPGAVNACHLSCSALLQDNVADAVACAKRVVRDPQGIRAWVAWRNRCQNRDVRQYVQGCGV [I107V] | 45.5 | 71.8 | 76.6 |

Same assay, conditions: Homo sapiens; pH 2.7; 49.2 °C; Thermal; DSC; glycine 0.05 M; reversible: yes; structure 1LZ1; whole UniProt chain shown

| Variant | ddG of mutation (higher = less stable) [kcal/mol] | heat capacity change of unfolding [kcal/mol/K] |
| --- | --- | --- |
| MKALIVLGLVLLSVTVQGKVFERCELARTLKRLGMDGYRGISLANWMCLAKWESGYNTRATNYNAGDRSTDYGIFQINSRYWCNDGKTPGAVNACHLSCSALLQDNVADAVACAKRVVRDPQGIRAWVAWRNRCQNRDVRQYVQGCGV [I107V] | 0.35 | 1.84 |
| MKALIVLGLVLLSVTVQGKVFERCELARTLKRLGMDGYRGISLANWMCLAKWESGYNTRATNYNAGDRSTDYGIFQINSRYWCNDGKTPGAVNACHLSCSALLQDNIADAAACAKRVVRDPQGIRAWVAWRNRCQNRDVRQYVQGCGV [V111A] | 1 | 1.53 |

Same assay, conditions: Homo sapiens; pH 2.7; Thermal; DSC; glycine 0.05 M; reversible: yes; structure 1LZ1; whole UniProt chain shown

| Variant | Tm | change of melting temperature, mutant - wild type (higher = more stable) | heat capacity change of unfolding [kcal/mol/K] | unfolding enthalpy (calorimetric) | unfolding enthalpy (van 't Hoff) [kcal/mol] |
| --- | --- | --- | --- | --- | --- |
| MKALIVLGLVLLSVTVQGKVFERCELARTLKRLGMDGYRGISLANWMCLAKWESGYNTRATNYNAGDRSTDYGIFQINSRYWCNDGKTPGAVNACHLSCSALLQDNVADAVACAKRVVRDPQGIRAWVAWRNRCQNRDVRQYVQGCGV [I107V] | 46.5 °C | -2.7 °C | 1.84 | 78.5 kcal/mol |  |
| MKALIVLGLVLLSVTVQGKVFERCELARTLKRLGMDGYRGISLANWMCLAKWESGYNTRATNYNAGDRSTDYGIFQINSRYWCNDGKTPGAVNACHLSCSALLQDNIADAVACAKRAVRDPQGIRAWVAWRNRCQNRDVRQYVQGCGV [V117A] | 44.8 °C | -4.4 °C | 1.27 | 67 kcal/mol |  |
| MKALIVLGLVLLSVTVQGKVFERCELARTLKRLGMDGYRGISLANWMCLAKWESGYNTRATNYNAGDRSTDYGIFQINSRYWCNDGKTPGAVNACHLSCSALLQDNIADAAACAKRVVRDPQGIRAWVAWRNRCQNRDVRQYVQGCGV [V111A] | 44.8 °C and 45.2 °C | -4.4 °C and -4 °C | 1.53 | 76.3 kcal/mol and 71.1 kcal/mol | 77.3 |

Same assay, conditions: Homo sapiens; pH 2.78; Thermal; DSC; glycine 0.05 M; reversible: yes; structure 1LZ1; whole UniProt chain shown

| Variant | Tm [°C] | unfolding enthalpy (calorimetric) [kcal/mol] | unfolding enthalpy (van 't Hoff) [kcal/mol] |
| --- | --- | --- | --- |
| MKALIVLGLVLLSVTVQGKVFERCELARTLKRLGMDGYRGISLANWMCLAKWESGYNTRATNYNAGDRSTDYGIFQINSRYWCNDGKTPGAVNACHLSCSALLQDNVADAVACAKRVVRDPQGIRAWVAWRNRCQNRDVRQYVQGCGV [I107V] | 48.4 | 77.3 | 82.3 |

Same assay, conditions: Homo sapiens; pH 3.1; Thermal; DSC; glycine 0.05 M; reversible: yes; structure 1LZ1; whole UniProt chain shown

| Variant | Tm [°C] | unfolding enthalpy (calorimetric) [kcal/mol] | unfolding enthalpy (van 't Hoff) [kcal/mol] |
| --- | --- | --- | --- |
| MKALIVLGLVLLSVTVQGKVFERCELARTLKRLGMDGYRGISLANWMCLAKWESGYNTRATNYNAGDRSTDYGIFQINSRYWCNDGKTPGAVNACHLSCSALLQDNVADAVACAKRVVRDPQGIRAWVAWRNRCQNRDVRQYVQGCGV [I107V] | 53.8 | 87.3 | 88.3 |
| MKALIVLGLVLLSVTVQGKVFERCELARTLKRLGMDGYRGISLANWMCLAKWESGYNTRATNYNAGDRSTDYGIFQINSRYWCNDGKTPGAVNACHLSCSALLQDNIADAVACAKRAVRDPQGIRAWVAWRNRCQNRDVRQYVQGCGV [V117A] | 52.6 | 70.6 | 73.7 |

Same assay, conditions: Homo sapiens; pH 2.54; Thermal; DSC; glycine 0.05 M; reversible: yes; structure 1LZ1; whole UniProt chain shown

| Variant | Tm [°C] | unfolding enthalpy (calorimetric) [kcal/mol] | unfolding enthalpy (van 't Hoff) [kcal/mol] |
| --- | --- | --- | --- |
| MKALIVLGLVLLSVTVQGKVFERCELARTLKRLGMDGYRGISLANWMCLAKWESGYNTRATNYNAGDRSTDYGIFQINSRYWCNDGKTPGAVNACHLSCSALLQDNIADAVACAKRAVRDPQGIRAWVAWRNRCQNRDVRQYVQGCGV [V117A] | 41.4 | 56 | 59.6 |

Same assay, conditions: Homo sapiens; pH 2.72; Thermal; DSC; glycine 0.05 M; reversible: yes; structure 1LZ1; whole UniProt chain shown

| Variant | Tm [°C] | unfolding enthalpy (calorimetric) [kcal/mol] | unfolding enthalpy (van 't Hoff) [kcal/mol] |
| --- | --- | --- | --- |
| MKALIVLGLVLLSVTVQGKVFERCELARTLKRLGMDGYRGISLANWMCLAKWESGYNTRATNYNAGDRSTDYGIFQINSRYWCNDGKTPGAVNACHLSCSALLQDNIADAVACAKRAVRDPQGIRAWVAWRNRCQNRDVRQYVQGCGV [V117A] | 45.3 | 62.2 | 65.8 |

Same assay, conditions: Homo sapiens; pH 2.85; Thermal; DSC; glycine 0.05 M; reversible: yes; structure 1LZ1; whole UniProt chain shown

| Variant | Tm [°C] | unfolding enthalpy (calorimetric) [kcal/mol] | unfolding enthalpy (van 't Hoff) [kcal/mol] |
| --- | --- | --- | --- |
| MKALIVLGLVLLSVTVQGKVFERCELARTLKRLGMDGYRGISLANWMCLAKWESGYNTRATNYNAGDRSTDYGIFQINSRYWCNDGKTPGAVNACHLSCSALLQDNIADAVACAKRAVRDPQGIRAWVAWRNRCQNRDVRQYVQGCGV [V117A] | 48.2 | 67.2 | 70.6 |

Same assay, conditions: Homo sapiens; pH 3.02; Thermal; DSC; glycine 0.05 M; reversible: yes; structure 1LZ1; whole UniProt chain shown

| Variant | Tm [°C] | unfolding enthalpy (calorimetric) [kcal/mol] | unfolding enthalpy (van 't Hoff) [kcal/mol] |
| --- | --- | --- | --- |
| MKALIVLGLVLLSVTVQGKVFERCELARTLKRLGMDGYRGISLANWMCLAKWESGYNTRATNYNAGDRSTDYGIFQINSRYWCNDGKTPGAVNACHLSCSALLQDNIADAVACAKRAVRDPQGIRAWVAWRNRCQNRDVRQYVQGCGV [V117A] | 51 | 68.9 | 72.2 |
| MKALIVLGLVLLSVTVQGKVFERCELARTLKRLGMDGYRGISLANWMCLAKWESGYNTRATNYNAGDRSTDYGIFQINSRYWCNDGKTPGAVNACHLSCSALLQDNIADAAACAKRVVRDPQGIRAWVAWRNRCQNRDVRQYVQGCGV [V111A] | 50.1 | 77.5 | 83 |

Same assay, conditions: Homo sapiens; pH 2.5; Thermal; DSC; glycine 0.05 M; reversible: yes; structure 1LZ1; whole UniProt chain shown

| Variant | Tm [°C] | unfolding enthalpy (calorimetric) [kcal/mol] | unfolding enthalpy (van 't Hoff) [kcal/mol] |
| --- | --- | --- | --- |
| MKALIVLGLVLLSVTVQGKVFERCELARTLKRLGMDGYRGISLANWMCLAKWESGYNTRATNYNAGDRSTDYGIFQINSRYWCNDGKTPGAVNACHLSCSALLQDNIADAAACAKRVVRDPQGIRAWVAWRNRCQNRDVRQYVQGCGV [V111A] | 41.2 | 64.1 | 71.1 |

Same assay, conditions: Homo sapiens; pH 3.16; Thermal; DSC; glycine 0.05 M; reversible: yes; structure 1LZ1; whole UniProt chain shown

| Variant | Tm [°C] | unfolding enthalpy (calorimetric) [kcal/mol] | unfolding enthalpy (van 't Hoff) [kcal/mol] |
| --- | --- | --- | --- |
| MKALIVLGLVLLSVTVQGKVFERCELARTLKRLGMDGYRGISLANWMCLAKWESGYNTRATNYNAGDRSTDYGIFQINSRYWCNDGKTPGAVNACHLSCSALLQDNIADAAACAKRVVRDPQGIRAWVAWRNRCQNRDVRQYVQGCGV [V111A] | 52.5 | 81.8 | 86.4 |
